From patent US20240301064A1 (published 2024)
Values belong to the binder of their own block, whether it stands above or below them.

How the values were obtained:
[1] = target: T1, human MAdCAM (human, UniProt Q13477 19-317, limits assumed); assay: BLI Octet
T1 construct: also called huMAdCAM
T1 sequence (looked up): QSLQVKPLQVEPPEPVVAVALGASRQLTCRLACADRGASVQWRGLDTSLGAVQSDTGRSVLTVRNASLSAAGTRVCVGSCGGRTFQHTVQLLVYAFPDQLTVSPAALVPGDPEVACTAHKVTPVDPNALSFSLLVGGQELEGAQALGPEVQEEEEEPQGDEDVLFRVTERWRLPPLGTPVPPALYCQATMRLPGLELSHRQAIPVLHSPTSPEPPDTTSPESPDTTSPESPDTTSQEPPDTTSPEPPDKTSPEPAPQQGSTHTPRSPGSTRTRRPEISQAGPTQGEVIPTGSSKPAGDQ
Description: (§1) Anti-human Fc biosensors were equilibrated in assay buffer (1% BSA in 1×PBS with 0.05% Tween-20) for 10 minutes before the experiment was set-up. Test articles were diluted to 5 μg/mL in assay buffer and 200 μL pipetted to 96 well plate. Human MAdCAM was titrated down, two-fold dilutions (starting at 600 nM as the highest concentration, 7-point dilution). Experiment was run using data acquisition software version 10.0 for OCTET96 RED. Test articles were captured using anti-human Fc biosensors for 180 s. Biosensors loaded with test articles were then equilibrated in assay buffer for 120 s. Association was performed in wells with huMAdCAM for 180 seconds. Dissociation was performed in wells with assay buffer for 180 s. Kinetic parameters (kon and kdis) and dissociation constant (KD) were calculated from a 1:1 global fit model using the data analysis software of the Octet96 RED software version 10.

[2] = target: T1, human MAdCAM; assay: BLI Octet, against PRNT1
Description: as §1

[3] = target: T1, human MAdCAM; assay: BLI, antibody on AHC tip, soluble MAdCAM
Description: (§2) Anti-human IgG Fc (AHC) biosensors were equilibrated in assay buffer for 20 minutes. Test article was diluted to 10 μg/mL in assay buffer (lx PBS, 1% BSA, 0.05% Tween20). A seven-point serial dilution of human and cynomolgus PD-1 or human, cynomolgus and mouse MAdCAM was prepared in assay buffer, starting at 1000 nM down to 15.625 nM. For PD-1 binding, test article was loaded on tips for 180 s followed by a 180 s association phase with PD-1 and 240 s dissociation phase in assay buffer. For MAdCAM binding, test article was loaded on tips for 180 s followed by a 120 s association phase with MAdCAM and 180 s dissociation phase in assay buffer. […] Accordingly, PMAB65 binds human, cyno, and mouse PD-1 and MAdCAM.

[4] = target: T2, cynomolgus MAdCAM (cynomolgus); assay: BLI, antibody on AHC tip, soluble MAdCAM
T2 chain: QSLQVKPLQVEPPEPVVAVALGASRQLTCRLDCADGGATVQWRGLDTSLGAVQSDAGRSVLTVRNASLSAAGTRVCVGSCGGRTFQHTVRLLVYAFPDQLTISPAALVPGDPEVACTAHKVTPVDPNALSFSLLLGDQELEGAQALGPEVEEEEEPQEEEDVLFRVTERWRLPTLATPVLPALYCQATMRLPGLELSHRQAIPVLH
Description: as §2

[5] = target: T3, mouse MAdCAM (mouse, UniProt Q61826 22-364); assay: BLI, antibody on AHC tip, soluble MAdCAM
T3 sequence (looked up): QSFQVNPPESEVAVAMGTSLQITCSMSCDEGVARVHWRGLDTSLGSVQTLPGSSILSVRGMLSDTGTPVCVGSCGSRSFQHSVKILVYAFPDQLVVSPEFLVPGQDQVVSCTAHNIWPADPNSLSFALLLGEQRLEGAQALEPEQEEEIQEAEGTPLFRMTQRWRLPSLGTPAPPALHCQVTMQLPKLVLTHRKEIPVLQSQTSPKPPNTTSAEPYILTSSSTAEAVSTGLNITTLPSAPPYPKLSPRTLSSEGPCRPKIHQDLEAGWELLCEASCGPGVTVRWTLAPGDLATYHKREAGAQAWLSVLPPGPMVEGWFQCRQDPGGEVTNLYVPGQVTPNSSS
Description: as §2

[6] = target: T4, human PD-1 (human, UniProt Q15116 25-167, limits assumed); assay: BLI, antibody on AHC tip, soluble PD-1
T4 construct: also called huPD-1
T4 sequence (Q15116 25-167 limits assumed): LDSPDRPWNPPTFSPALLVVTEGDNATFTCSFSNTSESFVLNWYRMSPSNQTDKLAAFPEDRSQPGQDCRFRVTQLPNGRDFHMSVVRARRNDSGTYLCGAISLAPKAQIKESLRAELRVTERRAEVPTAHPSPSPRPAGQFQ

[7] = target: T5, cynomolgus PD-1 (cynomolgus); assay: BLI, antibody on AHC tip, soluble PD-1
T5 construct: also called cyno PD-1

[8] = target: PD-1 on PD-1 reporter Jurkat cells; assay: cell-based or functional assay
[9] = target: T6, mouse PD-1 (mouse, UniProt Q02242 25-167, limits assumed); assay: BLI, antibody on AHC tip
T6 sequence (looked up): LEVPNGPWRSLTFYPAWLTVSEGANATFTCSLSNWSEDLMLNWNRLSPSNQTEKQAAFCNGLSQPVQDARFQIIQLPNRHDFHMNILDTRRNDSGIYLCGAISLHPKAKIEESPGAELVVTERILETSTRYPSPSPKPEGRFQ

B1: MIAB169 (antibody, human IgG1, kappa)
heavy: EVQLLESGGGLVQPGGSLRLSCAASGFTFSDFWMHWVRQAPGKGLEWISYISGDSGYTNYADSVKGRFTISRDNSKNTLYLQMNSLRAEDTAVYYCARDRPYYYIMDVWGKGTTVTVSSASTKGPSVFPLAPSSKSTSGGTAALGCLVKDYFPEPVTVSWNSGALTSGVHTFPAVLQSSGLYSLSSVVTVPSSSLGTQTYICNVNHKPSNTKVDKKVEPKSCDKTHTCPPCPAPEAAGAPSVFLFPPKPKDTLMISRTPEVTCVVVDVSHEDPEVKFNWYVDGVEVHNAKTKPREEQYNSTYRVVSVLTVLHQDWLNGKEYKCKVSNKALPAPIEKTISKAKGQPREPQVYTLPPSREEMTKNQVSLTCLVKGFYPSDIAVEWESNGQPENNYKTTPPVLDSDGSFFLYSKLTVDKSRWQQGNVFSCSVMHEALHNHYTQKSLSLSPGGGGGSAPTSSSTKKTQLQLEHLLLDLQMILNGINNYKNPKLTRMLTFKFYMPKKATELKHLQCLEEELKPLEEALNLAPSKNFHLRPRDLISDINVIVLELKGSETTFMCEYADETATIVEFINRWITFSQSIISTLT
light: DIQMTQSPSSLSASVGDRVTITCRASQSVSRSLAWYQQKPGKAPKLLIYAASSLQSGVPSRFSGSGSGTDFTLTISSLQPEDFATYYCQQYKSYPVTFGQGTKVEIKRTVAAPSVFIFPPSDEQLKSGTASVVCLLNNFYPREAKVQWKVDNALQSGNSQESVTEQDSKDSTYSLSSTLTLSKADYEKHKVYACEVTHQGLSSPVTKSFNRGEC
notes: also called MIAB169-CHO; MIAB169-HEK
fold lower affinity than parent PRNT1 [1]: 10 fold

B2: MIAB182 (antibody, human IgG1, kappa)
heavy: EVQLLESGGGLVQPGGSLRLSCAASGFTFSSYWMHWVRQAPGKGLEWVSAISGSGGSTYYADSVKGRFTISRDNSKNTLYLQMNSLRAEDTAVYYCARDRPYYYYMDVWGKGTTVTVSSASTKGPSVFPLAPSSKSTSGGTAALGCLVKDYFPEPVTVSWNSGALTSGVHTFPAVLQSSGLYSLSSVVTVPSSSLGTQTYICNVNHKPSNTKVDKKVEPKSCDKTHTCPPCPAPEAAGAPSVFLFPPKPKDTLMISRTPEVTCVVVDVSHEDPEVKFNWYVDGVEVHNAKTKPREEQYNSTYRVVSVLTVLHQDWLNGKEYKCKVSNKALPAPIEKTISKAKGQPREPQVYTLPPSREEMTKNQVSLTCLVKGFYPSDIAVEWESNGQPENNYKTTPPVLDSDGSFFLYSKLTVDKSRWQQGNVFSCSVMHEALHNHYTQKSLSLSPGGGGGSAPTSSSTKKTQLQLEHLLLDLQMILNGINNYKNPKLTRMLTFKFYMPKKATELKHLQCLEEELKPLEEALNLAPSKNFHLRPRDLISDINVIVLELKGSETTFMCEYADETATIVEFINRWITFSQSIISTLT
light: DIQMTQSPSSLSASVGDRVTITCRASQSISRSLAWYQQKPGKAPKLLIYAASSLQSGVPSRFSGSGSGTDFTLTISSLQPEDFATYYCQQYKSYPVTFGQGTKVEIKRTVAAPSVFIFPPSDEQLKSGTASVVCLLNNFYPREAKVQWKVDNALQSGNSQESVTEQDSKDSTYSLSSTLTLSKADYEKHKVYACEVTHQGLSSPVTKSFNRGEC
notes: also called MIAB182-001
fold reduction of MAdCAM affinity [2]: 10 fold

More lines, now with the values ahead:

fold reduction of MAdCAM affinity [2]: 20 fold
B3: MIAB183 (antibody, human IgG1, kappa)
heavy: EVQLLESGGGLVQPGGSLRLSCAASGFTFSSYWMHWVRQAPGKGLEWVSAISGSGGSTYYADSVKGRFTISRDNSKNTLYLQMNSLRAEDTAVYYCARDRPYYYYMDVWGKGTTVTVSSASTKGPSVFPLAPSSKSTSGGTAALGCLVKDYFPEPVTVSWNSGALTSGVHTFPAVLQSSGLYSLSSVVTVPSSSLGTQTYICNVNHKPSNTKVDKKVEPKSCDKTHTCPPCPAPEAAGAPSVFLFPPKPKDTLMISRTPEVTCVVVDVSHEDPEVKFNWYVDGVEVHNAKTKPREEQYNSTYRVVSVLTVLHQDWLNGKEYKCKVSNKALPAPIEKTISKAKGQPREPQVYTLPPSREEMTKNQVSLTCLVKGFYPSDIAVEWESNGQPENNYKTTPPVLDSDGSFFLYSKLTVDKSRWQQGNVFSCSVMHEALHNHYTQKSLSLSPGGGGGSAPTSSSTKKTQLQLEHLLLDLQMILNGINNYKNPKLTRMLTFKFYMPKKATELKHLQCLEEELKPLEEALNLAPSKNFHLRPRDLISDINVIVLELKGSETTFMCEYADETATIVEFINRWITFSQSIISTLT
light: DIQMTQSPSSLSASVGDRVTITCRASQSVSSSLAWYQQKPGKAPKLLIYAASSLQSGVPSRFSGSGSGTDFTLTISSLQPEDFATYYCQQYKSYPVTFGQGTKVEIKRTVAAPSVFIFPPSDEQLKSGTASVVCLLNNFYPREAKVQWKVDNALQSGNSQESVTEQDSKDSTYSLSSTLTLSKADYEKHKVYACEVTHQGLSSPVTKSFNRGEC
notes: also called MIAB183-001

fold reduction of MAdCAM affinity [2]: 40 fold
B4: MIAB184 (antibody, human IgG1, kappa)
heavy: EVQLLESGGGLVQPGGSLRLSCAASGFTFSSYWMHWVRQAPGKGLEWVSAISGSGGSTYYADSVKGRFTISRDNSKNTLYLQMNSLRAEDTAVYYCARDRPYYYYMDVWGKGTTVTVSSASTKGPSVFPLAPSSKSTSGGTAALGCLVKDYFPEPVTVSWNSGALTSGVHTFPAVLQSSGLYSLSSVVTVPSSSLGTQTYICNVNHKPSNTKVDKKVEPKSCDKTHTCPPCPAPEAAGAPSVFLFPPKPKDTLMISRTPEVTCVVVDVSHEDPEVKFNWYVDGVEVHNAKTKPREEQYNSTYRVVSVLTVLHQDWLNGKEYKCKVSNKALPAPIEKTISKAKGQPREPQVYTLPPSREEMTKNQVSLTCLVKGFYPSDIAVEWESNGQPENNYKTTPPVLDSDGSFFLYSKLTVDKSRWQQGNVFSCSVMHEALHNHYTQKSLSLSPGGGGGSAPTSSSTKKTQLQLEHLLLDLQMILNGINNYKNPKLTRMLTFKFYMPKKATELKHLQCLEEELKPLEEALNLAPSKNFHLRPRDLISDINVIVLELKGSETTFMCEYADETATIVEFINRWITFSQSIISTLT
light: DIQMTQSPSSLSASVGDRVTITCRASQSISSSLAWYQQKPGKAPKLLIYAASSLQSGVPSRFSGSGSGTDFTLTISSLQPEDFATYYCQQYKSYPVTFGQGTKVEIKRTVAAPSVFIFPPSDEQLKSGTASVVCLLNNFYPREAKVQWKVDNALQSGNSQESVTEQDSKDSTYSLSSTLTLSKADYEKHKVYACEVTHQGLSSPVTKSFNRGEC
notes: also called MIAB184-001

Kd [3]: 75.5 nM
Kd [4]: 24.3 nM
Kd [5]: 269 nM
Kd [6]: 32.6 nM
Kd [7]: 30.3 nM
PD-1 reporter Jurkat cells on test-article-loaded MAdCAM-expressing CHO cells; EC50 [8]: 0.78 nM
SHP-2 recruitment, Ig-tethered test article, PD-1 reporter Jurkat cells; EC50 [8]: 3.04 nM
binding result [9]: no binding
B5: PMAB65 (bispecific antibody, human IgG1, kappa)
heavy: EVQLLESGGGLVQPGGSLRLSCAASGFTFSSYDMSWVRQAPGKGLEWVSGITISGGSTYYADSVKGRFTISRDNSKNTLYLQMNSLRAEDTAVYYCARGRGGSGWLDYWGQGTTVTVSSASTKGPSVFPLAPSSKSTSGGTAALGCLVKDYFPEPVTVSWNSGALTSGVHTFPAVLQSSGLYSLSSVVTVPSSSLGTQTYICNVNHKPSNTKVDKKVEPKSCDKTHTCPPCPAPEAAGAPSVFLFPPKPKDTLMISRTPEVTCVVVDVSHEDPEVKFNWYVDGVEVHNAKTKPREEQYNSTYRVVSVLTVLHQDWLNGKEYKCKVSNKALPAPIEKTISKAKGQPREPQVYTLPPSREEMTKNQVSLTCLVKGFYPSDIAVEWESNGQPENNYKTTPPVLDSDGSFFLYSKLTVDKSRWQQGNVFSCSVMHEALHNHYTQKSLSLSPGGGGGSGGGGSGGGGSEVQLLESGGGLVQPGGSLRLSCAASGFTFSSYWMHWVRQAPGKGLEWVSYISGSGGYTNYADSVKGRFTISRDNSKNTLYLQMNSLRAEDTAVYYCARDRPYYYDMDVWGKGTTVTVSSGGGGSGGGGSGGGGSGGGGSDIQMTQSPSSLSASVGDRVTITCRASQSISSSLAWYQQKPGKAPKLLIYAASSLQSGVPSRFSGSGSGTDFTLTISSLQPEDFATYYCQQYKSYPVTFGQGTKVEIK
light: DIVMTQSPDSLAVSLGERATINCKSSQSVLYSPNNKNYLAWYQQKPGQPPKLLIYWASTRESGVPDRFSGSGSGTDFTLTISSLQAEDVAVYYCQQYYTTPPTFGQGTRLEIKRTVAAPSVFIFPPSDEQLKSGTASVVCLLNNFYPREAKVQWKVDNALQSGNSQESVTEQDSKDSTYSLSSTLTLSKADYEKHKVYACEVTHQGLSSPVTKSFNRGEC
